Assay results: US20120231006A1 (Amgen, published 2012)
Where a chain is given by its changes, count along the chain named.

B1: mAb 2D2.1 (antibody, human IgG2, lambda, V domains shown)
VH: QVQLQQWGAGLLKPSETLSLTCAVYGGSFSGYYWSWIRQPPGKGLEWIGEIDHSGRINYNPALKSRLTISVDTSKNQFSLKLSSVTAADTAVYYCARAGSGGYEDWFDPWGQGTLVTVSS
VL: QSVLTQPPSVSGAPGQRVTISCTGSSSNIGAGYNVHWYQQFPRTDPKLLIYVYNIRPSGVPDRFSGSRSGTSASLAITGLQTEDEADYYCQSYDSSLSGVVFGGGTKLTVLG
notes: fully human IgG2 lambda, Campaign 1; also called mAb 2D.1
B2: mAb 2B7.1 (antibody, human IgG2, V domains shown)
VH: B1 VH with R56S, I57T
VL: B1 VL with A31T
notes: fully human, Campaign 1
B3: mAb 2C1.1 (antibody, human IgG2, lambda, V domains shown)
VH: B1 VH with R56S, I57T
VL: B1 VL
notes: fully human IgG2 lambda, Campaign 1; tested hybridoma-purified and recombinant; also called anti-hOrai1 mAb 2C1.1
B4: mAb 2B4.1 (antibody, human IgG2, lambda, V domains shown)
VH: QVQLVQSGAEVKKPGASVKVSCKASGYTFTDYYMHWVRQAPGQGLEWMGWINPNSGGTNYVQKFQDRVTMTRDTSITTAYMELTRLRSDDTAVYYCAREEGDYGMDVWGQGTTVTVSS
VL: QSVLTQPPSVSGAPGQRVTISCTGSNSNIGTGYDVHWYQKLPGTAPRLLIYSHFNRPSGVPDRFSGSTSGTSASLAITGLQAEDEADYYCQSYDSSLSGSVFGGGTKLTVLG
B5: mAb 5C1.1 (antibody, human IgG2, lambda, V domains shown)
VH: QVQLVQSGAEVKKPGASVKVSCKASGYTFTDYYMNWVRQAPGQGLEWMGWINPNSGGTKYAQKFQGRVTMTRDTSIRTAYMELSRLRSDDTAVYYCAREYGGNSDWFDPWGQGTLVTVSS
VL: QSVLTQPPSVSGAPGQRVTISCTGSSSNIGAGYDVHWYQQLPGTAPKLLIYGNSNRPSGVPDRFSGSKSGTSASLAITGLQAEDEADYYCQSYDNRLSDSVVIGGGTKLAVQG
notes: fully human IgG2 lambda, Campaign 2
B6: mAb 5B1.1 (antibody, human IgG2, lambda, V domains shown)
VH: B5 VH with M34I, T58S, K59S, R77S, Y80H, S84I, Y100R, N103I, S104E
VL: QSVLTQPPSVSGAPGQRVTISCTGSSSNIGAGYDVHWYQQLPGTAPKLLIYGNSNRPSGVPDRFSGSKSGTSASLAITKFQAEDEAVYYCQSYGSGLSGVVFGGGTKLTVLG
notes: fully human IgG2 lambda, Campaign 2; also called mAb 5Bl1.1

Tests used:
[1] = target: T1, mOrai1-hOrai1 ECL2 (…) protein (human/mouse chimera, UniProt Q8BWG9 1-304 (mouse entry)); test: FACS, 293EBNA; set-up: concentration or dose not given beside the values
T1 construct: also called Ch
Description: (§1) FIG. 16A-D illustrates the results of FACS analysis showing binding to the indicated mOrai1-hOrai1 ECL2 chimeric mutants expressed on the surface of HEK-293-EBNA cells. Transfected cells were stained first with recombinant monoclonal antibodies then counter-stained with a secondary phycoerythrin-labeled goat (“Gt”) anti-human (“Hu”) IgG F(ab′)₂ antibody fragment and visualized using FACS. In FIG. 16B and FIG. 16D, The values of Relative Fluorescence Intensity as Percent of Control (RFI-POC) are calculated from the relative fluorescence intensity geometric mean (Geo Mean). The geometric mean is an average calculated by multiplying a series of numbers and taking the nth root where n is the number of numbers in the series. It is a statistical average of a set of transformed numbers often used to represent a central tendency in a highly variable data set that minimizes the effects of extreme values.
(§2) Table 11A and Table 11B feature a schematic representation of the POC data from FIG. 16B and FIG. 16D, respectively, where the binding results are recorded as (+++) denoting binding POC from 40% to 100%, (++) for POC of 5% to less than 40%, (+) for POC from 1% to less than 5% and (−) as lack of binding with POC less than 1%.
T1 sequence (Q8BWG9 other isoform, or with tags, fused parts or gaps): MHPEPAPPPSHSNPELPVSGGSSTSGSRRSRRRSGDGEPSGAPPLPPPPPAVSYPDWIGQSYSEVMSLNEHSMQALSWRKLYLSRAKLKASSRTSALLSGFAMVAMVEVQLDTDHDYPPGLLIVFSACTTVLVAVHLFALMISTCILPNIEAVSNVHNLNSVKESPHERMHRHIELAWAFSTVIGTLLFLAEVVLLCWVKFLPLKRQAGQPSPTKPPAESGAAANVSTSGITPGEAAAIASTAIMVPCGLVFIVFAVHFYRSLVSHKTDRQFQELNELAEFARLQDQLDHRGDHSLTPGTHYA

[2] = target: T2, hOrai1-mOrai1 ECL2 chimeric protein (human/mouse chimera, UniProt Q96D31 1-301); test: FACS, 293EBNA; set-up: concentration or dose not given beside the values
T2 construct: human Orai1 with mouse ECL2; also called Ch
Description: as §1, §2

[3] = target: T3, mOrai1-hOrai1 ECL2 (…) protein (human/mouse chimera, UniProt Q8BWG9 1-304 (mouse entry)); test: FACS, 293EBNA; set-up: concentration or dose not given beside the values; remark: listed apart in the source
T3 construct: also called Ch
Description: as §1, §2
T3 sequence (Q8BWG9 other isoform, or with tags, fused parts or gaps): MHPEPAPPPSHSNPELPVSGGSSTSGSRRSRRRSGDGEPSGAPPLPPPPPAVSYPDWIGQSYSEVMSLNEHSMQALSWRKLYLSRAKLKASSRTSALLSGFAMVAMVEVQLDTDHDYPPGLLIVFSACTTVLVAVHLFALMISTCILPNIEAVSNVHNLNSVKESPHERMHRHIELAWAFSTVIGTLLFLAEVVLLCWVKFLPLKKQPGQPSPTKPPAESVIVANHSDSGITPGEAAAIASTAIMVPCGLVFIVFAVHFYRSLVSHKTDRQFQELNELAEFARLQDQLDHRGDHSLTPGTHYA

[4] = target: T4, mOrai1-hOrai1 ECL2 (KPPAE) protein (human/mouse chimera, UniProt Q8BWG9 1-304 (mouse entry)); test: FACS, 293EBNA; set-up: concentration or dose not given beside the values
T4 construct: also called Ch
Description: as §1, §2

[5] = target: T5, mOrai1-hOrai1 ECL2 (SPTKPPAE) protein (human/mouse chimera, UniProt Q8BWG9 1-304 (mouse entry)); test: FACS, 293EBNA; set-up: concentration or dose not given beside the values
T5 construct: also called Ch
Description: as §1, §2

[6] = target: T6, mOrai1-hOrai1 ECL2 (…) protein (human/mouse chimera, UniProt Q8BWG9 1-304 (mouse entry)); test: FACS, 293EBNA; set-up: concentration or dose not given beside the values; remark: listed apart in the source
T6 construct: also called Ch
Description: as §1, §2
T6 sequence (Q8BWG9 other isoform, or with tags, fused parts or gaps): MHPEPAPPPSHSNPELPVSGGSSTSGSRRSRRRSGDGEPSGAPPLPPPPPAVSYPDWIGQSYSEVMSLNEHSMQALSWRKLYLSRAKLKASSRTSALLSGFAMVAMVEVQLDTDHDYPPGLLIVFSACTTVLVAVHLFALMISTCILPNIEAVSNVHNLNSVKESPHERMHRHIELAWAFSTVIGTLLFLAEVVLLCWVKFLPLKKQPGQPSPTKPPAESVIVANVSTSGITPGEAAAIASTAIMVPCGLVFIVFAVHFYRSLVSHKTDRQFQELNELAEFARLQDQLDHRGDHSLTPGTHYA

human Orai1 = target: T7, human Orai1 (human, UniProt Q96D31 1-301); test: FACS Kd, AM1-CHO/hOrai1/hSTIM1-YFP cells
T7 construct: on AM1-CHO/hOrai1/hSTIM1-YFP, AM1/hOrai1, HEK-293 transfectants, endogenous on Jurkat and blood cells; in Westerns from cell lysates; also called hOrai1; CRACM1
Protocol: The equilibrium plates were centrifuged at 500 g for 3 minutes and cell pellets were washed twice with 200 μL of ice cold FACS buffer (1×D-PBS+2% FBS). The cells were then incubated with a secondary antibody, goat anti-human Fc Cy5 at 5 μg/mL and 100 μL per well for 1 h on ice in the dark. Following the incubation, the cells were washed twice with 200 μL of ice-cold FACS buffer before flow cytometry analysis. The GeoMean values gated on live cell population measure the bound [Ab]. The inverse of the GeoMean values that reflects theoretical free [Ag] in the equilibrium solution was then calculated. The inverse values of the GeoMean read were used in KinExA® Pro software for analysis and Kd calculation for each antibody. The free [Ag] measure was plotted against the starting concentration of titrating component and from these plots at two different cell concentrations the Kd was obtained from curve fitting using n-curve analysis in KinExA Pro software. […] Shown in Table 14 (below) are the equilibrium dissociation constant (Kd) values of invented mAbs determined by FACS Kd measurement.

[7] = target: T8, mOrai1-hOrai1 ECL2 (VIV) protein (human/mouse chimera, UniProt Q8BWG9 1-304 (mouse entry)); test: FACS, 293EBNA, RFI-POC grade; set-up: concentration or dose not given beside the values
T8 construct: also called Ch
Description: as §1, §2

[8] = target: T9, mOrai1-hOrai1 ECL2 (HSD) protein (human/mouse chimera, UniProt Q8BWG9 1-304 (mouse entry)); test: FACS, 293EBNA, RFI-POC grade; set-up: concentration or dose not given beside the values
T9 construct: also called Ch
Description: as §1, §2

[9] = target: T10, mOrai1-hOrai1 ECL2 chimeric protein (human/mouse chimera, UniProt Q8BWG9 1-304 (mouse entry)); test: FACS, 293EBNA, RFI-POC grade; set-up: concentration or dose not given beside the values
T10 construct: mouse Orai1 with human ECL2; also called Ch
Description: as §1, §2

[10] = target: T11, hOrai1-mOrai1 ECL2 (…) protein (human/mouse chimera, UniProt Q96D31 1-301); test: FACS, 293EBNA, RFI-POC grade; set-up: concentration or dose not given beside the values
T11 construct: also called Ch

[11] = target: T12, hOrai1-mOrai1 ECL2 (SKPPA) protein (human/mouse chimera, UniProt Q96D31 1-301); test: FACS, 293EBNA, RFI-POC grade; set-up: concentration or dose not given beside the values
T12 construct: also called Ch

[12] = target: T2, hOrai1-mOrai1 ECL2 chimeric protein; test: FACS, 293EBNA transfectants
Description: FIG. 15A-B illustrates the results of FACS analysis showing binding to human Orai1 extracellular loop 2-mouse Orai1 mutant expressed on the surface of HEK-293-EBNA cells. HEK-293-EBNA cells were transiently transfected with mouse Orai1 mutant where human Orai1 extracellular loop 2 replaced the mouse Orai1 extracellular loop 2 and human Orai1 mutant where mouse Orai1 extracellular loop 2 replaced human extracellular loop 2. Transfected cells were stained first with recombinant monoclonal antibodies then counter-stained with a secondary phycoerythrin-labeled goat (“Gt”) anti-human (“Hu”) IgG F(ab′)₂ antibody fragment and visualized using FACS.
FACS binding analysis. Transfected 293EBNA cells transiently expressed hOrai1-mOrai1 ECL2 or mOrai1-hOrai1 ECL2 chimera. The transfected cells were harvested at 48 hours post-transfection. Cells transfected with pcDNA3.1 were used as negative controls. Cells were washed once with ice-cold 1×PBS, resuspended in ice-cold FACS buffer (1×D-PBS+2% goat serum), and 2×10⁵ cells in 100 μL were stained per antibody combination. All antibody incubation steps were performed on ice for 1 hour. […] Next, the unlabelled antibody was detected using goat F(ab′)₂ anti-mouse or anti-human IgG-phycoerythrin (IgG-PE), followed by a wash with 200 μL of ice-cold FACS buffer before flow cytometry analysis. Unstained cells and cells stained with detecting antibodies were used as negative controls. The values of relative level of fluorescence were calculated using FCS Express (De Novo Software) and mean values were calculated using log-transformed data (geometric mean). The results of the FACS analysis are shown in FIG. 15A-B, which supports the conclusion that the hOrai1 ECL2 domain is the region of hOrai1 where antibodies of the present invention bind.

[13] = target: T13, mOrai1-hOrai1 ECL2 (…) protein (human/mouse chimera, UniProt Q8BWG9 1-304 (mouse entry)); test: FACS, 293EBNA; set-up: concentration or dose not given beside the values; remark: listed apart in the source
T13 construct: also called Ch
Description: as §1, §2
T13 sequence (Q8BWG9 other isoform, or with tags, fused parts or gaps): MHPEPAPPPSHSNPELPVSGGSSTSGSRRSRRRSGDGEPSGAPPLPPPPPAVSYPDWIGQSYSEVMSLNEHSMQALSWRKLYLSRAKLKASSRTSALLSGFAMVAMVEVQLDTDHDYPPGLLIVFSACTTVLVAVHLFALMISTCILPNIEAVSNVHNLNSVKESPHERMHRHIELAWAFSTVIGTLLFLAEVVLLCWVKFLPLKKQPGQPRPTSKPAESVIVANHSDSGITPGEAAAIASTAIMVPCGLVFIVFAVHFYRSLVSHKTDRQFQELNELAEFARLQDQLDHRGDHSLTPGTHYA

[14] = target: T14, mOrai1-hOrai1 ECL2 (AESVIV) protein (human/mouse chimera, UniProt Q8BWG9 1-304 (mouse entry)); test: FACS, 293EBNA; set-up: concentration or dose not given beside the values
T14 construct: also called Ch
Description: as §1, §2

T11 sequence (Q96D31 other isoform, or with tags, fused parts or gaps): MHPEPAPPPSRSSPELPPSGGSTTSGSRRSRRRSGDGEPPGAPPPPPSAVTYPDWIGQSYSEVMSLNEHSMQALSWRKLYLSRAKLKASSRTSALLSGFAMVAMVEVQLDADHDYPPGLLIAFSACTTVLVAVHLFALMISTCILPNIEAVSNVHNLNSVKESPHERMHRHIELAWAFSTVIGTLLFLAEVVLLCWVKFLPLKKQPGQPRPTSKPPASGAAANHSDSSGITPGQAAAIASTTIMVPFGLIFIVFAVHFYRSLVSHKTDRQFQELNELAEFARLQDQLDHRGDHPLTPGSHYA
T12 sequence (Q96D31 other isoform, or with tags, fused parts or gaps): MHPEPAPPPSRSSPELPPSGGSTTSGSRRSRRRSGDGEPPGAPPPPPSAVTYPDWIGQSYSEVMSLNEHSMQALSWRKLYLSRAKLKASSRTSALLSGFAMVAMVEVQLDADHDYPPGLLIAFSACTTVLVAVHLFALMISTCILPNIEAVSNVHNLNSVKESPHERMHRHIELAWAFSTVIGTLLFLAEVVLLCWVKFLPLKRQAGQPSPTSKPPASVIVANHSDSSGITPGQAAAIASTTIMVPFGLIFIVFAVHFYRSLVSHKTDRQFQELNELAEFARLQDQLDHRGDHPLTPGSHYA
T5 sequence (Q8BWG9 other isoform, or with tags, fused parts or gaps): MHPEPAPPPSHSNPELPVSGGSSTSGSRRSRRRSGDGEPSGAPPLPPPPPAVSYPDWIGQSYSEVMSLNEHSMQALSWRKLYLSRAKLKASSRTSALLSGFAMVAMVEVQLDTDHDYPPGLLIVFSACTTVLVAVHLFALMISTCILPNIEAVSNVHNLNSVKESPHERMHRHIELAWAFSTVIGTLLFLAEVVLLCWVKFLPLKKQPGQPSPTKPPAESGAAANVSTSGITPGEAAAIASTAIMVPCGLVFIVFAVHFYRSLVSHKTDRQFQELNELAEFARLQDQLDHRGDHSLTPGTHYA
T8 sequence (Q8BWG9 other isoform, or with tags, fused parts or gaps): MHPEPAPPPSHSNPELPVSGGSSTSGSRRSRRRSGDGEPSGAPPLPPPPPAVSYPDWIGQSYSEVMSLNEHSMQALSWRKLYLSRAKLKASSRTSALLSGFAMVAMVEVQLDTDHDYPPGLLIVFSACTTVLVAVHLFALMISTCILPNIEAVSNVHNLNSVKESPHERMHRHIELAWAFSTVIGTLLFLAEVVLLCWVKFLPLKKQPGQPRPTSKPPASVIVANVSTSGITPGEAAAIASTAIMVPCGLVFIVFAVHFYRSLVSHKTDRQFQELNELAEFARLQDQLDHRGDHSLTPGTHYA
T9 sequence (Q8BWG9 other isoform, or with tags, fused parts or gaps): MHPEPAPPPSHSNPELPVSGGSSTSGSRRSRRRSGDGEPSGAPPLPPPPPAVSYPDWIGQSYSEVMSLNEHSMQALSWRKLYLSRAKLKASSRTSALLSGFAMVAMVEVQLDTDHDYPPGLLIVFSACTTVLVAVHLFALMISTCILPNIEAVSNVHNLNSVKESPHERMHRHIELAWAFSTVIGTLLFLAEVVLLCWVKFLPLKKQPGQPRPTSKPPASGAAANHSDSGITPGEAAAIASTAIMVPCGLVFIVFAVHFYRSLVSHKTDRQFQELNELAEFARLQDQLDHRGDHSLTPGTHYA
T10 sequence (Q8BWG9 other isoform, or with tags, fused parts or gaps mutant): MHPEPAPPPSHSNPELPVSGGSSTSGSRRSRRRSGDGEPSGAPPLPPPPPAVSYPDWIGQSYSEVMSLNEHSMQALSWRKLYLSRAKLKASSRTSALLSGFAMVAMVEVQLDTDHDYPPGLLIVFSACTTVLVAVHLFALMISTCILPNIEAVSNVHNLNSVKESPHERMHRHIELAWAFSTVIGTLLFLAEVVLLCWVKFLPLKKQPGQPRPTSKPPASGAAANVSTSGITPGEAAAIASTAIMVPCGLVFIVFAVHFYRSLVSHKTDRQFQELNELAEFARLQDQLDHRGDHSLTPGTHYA
T2 sequence (Q96D31 other isoform, or with tags, fused parts or gaps mutant): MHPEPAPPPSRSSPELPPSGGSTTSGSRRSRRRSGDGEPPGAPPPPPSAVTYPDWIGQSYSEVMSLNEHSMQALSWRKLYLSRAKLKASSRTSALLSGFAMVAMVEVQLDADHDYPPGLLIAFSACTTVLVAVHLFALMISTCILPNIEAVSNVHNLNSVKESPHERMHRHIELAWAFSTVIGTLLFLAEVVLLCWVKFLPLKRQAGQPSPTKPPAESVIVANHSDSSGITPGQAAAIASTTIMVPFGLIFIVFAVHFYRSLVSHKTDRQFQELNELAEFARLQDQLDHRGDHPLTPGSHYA
T7 sequence (Q96D31 whole entry): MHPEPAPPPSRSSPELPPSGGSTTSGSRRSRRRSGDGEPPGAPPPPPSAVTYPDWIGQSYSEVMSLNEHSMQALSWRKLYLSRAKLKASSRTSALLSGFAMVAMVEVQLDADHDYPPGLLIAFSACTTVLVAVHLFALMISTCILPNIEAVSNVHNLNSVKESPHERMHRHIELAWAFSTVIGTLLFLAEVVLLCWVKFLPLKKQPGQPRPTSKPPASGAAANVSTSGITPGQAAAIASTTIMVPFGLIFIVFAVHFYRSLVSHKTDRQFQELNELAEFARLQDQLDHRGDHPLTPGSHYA
T4 sequence (Q8BWG9 other isoform, or with tags, fused parts or gaps): as the sequence (Q8BWG9 other isoform, or with tags, fused parts or gaps mutant) above, with S215K, K216P, P218A, A219E counted along it
T14 sequence (Q8BWG9 other isoform, or with tags, fused parts or gaps): as the sequence (Q8BWG9 other isoform, or with tags, fused parts or gaps mutant) above, with P218A, A219E, G221V, A222I, A223V counted along it

Row | Binder | POC (percent of control, FACS Geo Mean relative to Ch. 1) [1] | POC (percent of control, FACS Geo Mean relative to binding to Ch. 1) [1] | POC (percent of control, FACS Geo Mean relative to Ch. 1) [2] | POC (percent of control, FACS Geo Mean relative to binding to Ch. 1) [2] | POC (percent of control, FACS Geo Mean relative to Ch. 1) [3] | POC (percent of control, FACS Geo Mean relative to binding to Ch. 1) [3] | POC (percent of control, FACS Geo Mean relative to Ch. 1) [4] | POC (percent of control, FACS Geo Mean relative to binding to Ch. 1) [4] | POC (percent of control, FACS Geo Mean relative to Ch. 1) [5] | POC (percent of control, FACS Geo Mean relative to binding to Ch. 1) [5] | POC (percent of control, FACS Geo Mean relative to Ch. 1) [6] | POC (percent of control, FACS Geo Mean relative to binding to Ch. 1) [6] | Kd (human Orai1) | POC (percent of control, FACS Geo Mean relative to binding to Ch. 1) [7] | POC (percent of control, FACS Geo Mean relative to binding to Ch. 1) [8] | POC (percent of control, FACS Geo Mean relative to binding to Ch. 1) [9] | percent of control (POC) of FACS Geo Mean [10] | percent of control (POC) of FACS Geo Mean [11] | binding result [12] | further results
1 | B1 | < 1% | < 1% | < 1% | < 1% | < 1% | < 1% | < 1% | < 1% | < 1% | < 1% | < 1% | < 1% | 0.0098 nM | 40 to 100% | 40 to 100% | 40 to 100% | 40 to 100% | 5 to 40% | no binding (tested: 1 µg) | –
2 | B2 | < 1% | – | < 1% | – | < 1% | – | < 1% | – | < 1% | – | < 1% | – | 0.133 nM | – | – | – | – | – | no binding (tested: 1 µg) | –
3 | B3 | < 1% | – | < 1% | – | < 1% | – | < 1% | – | < 1% | – | < 1% | – | 0.52 nM | – | – | – | – | – | no binding (tested: 1 µg) | –
4 | B4 | < 1% | – | < 1% | – | < 1% | – | < 1% | – | < 1% | – | < 1% | – | 1.8 nM | – | – | – | – | – | no binding (tested: 1 µg) | POC (percent of control, FACS Geo Mean relative to Ch. 1) [13]: < 1%; POC (percent of control, FACS Geo Mean relative to Ch. 1) [14]: < 1%
5 | B5 | – | < 1% | – | < 1% | – | < 1% | – | < 1% | – | < 1% | – | < 1% | – | 40 to 100% | 40 to 100% | 40 to 100% | 40 to 100% | 40 to 100% | no binding (tested: 1 µg) | POC (percent of control, FACS Geo Mean relative to binding to Ch. 1) [13]: < 1%; POC (percent of control, FACS Geo Mean relative to binding to Ch. 1) [14]: < 1%
6 | B6 | – | < 1% | – | < 1% | – | < 1% | – | < 1% | – | < 1% | – | < 1% | 0.443 nM | 40 to 100% | 40 to 100% | 40 to 100% | 40 to 100% | 5 to 40% | no binding (tested: 1 µg) | –
